Data from article PMC9482650, “Quantitative fragmentomics allow affinity mapping of interactomes” (Nature Communications, 2022).

T1: MPP2, Q14168
T1 sequence (Q14168 180-250, limits assumed, looked up): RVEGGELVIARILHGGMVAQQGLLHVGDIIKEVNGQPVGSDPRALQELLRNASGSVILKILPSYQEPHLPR

T2: GRIP1_5, Q9Y3R0
T2 sequence (Q9Y3R0 568-668, limits assumed, looked up): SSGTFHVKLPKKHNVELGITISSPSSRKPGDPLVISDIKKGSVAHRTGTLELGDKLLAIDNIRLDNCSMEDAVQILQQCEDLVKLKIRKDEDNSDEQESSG

T3: APBA1_2, Q02410
T3 sequence (Q02410 742-832, limits assumed, looked up): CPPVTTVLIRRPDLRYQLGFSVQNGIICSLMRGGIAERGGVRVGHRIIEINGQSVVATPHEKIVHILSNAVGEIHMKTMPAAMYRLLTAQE

T4: APBA2_1, Q99767
T4 sequence (Q99767 563-664, limits assumed, looked up): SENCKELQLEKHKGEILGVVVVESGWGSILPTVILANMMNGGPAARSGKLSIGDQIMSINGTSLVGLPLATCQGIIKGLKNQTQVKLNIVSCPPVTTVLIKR

T5: NHERF3_3, Q5T2W1
T5 sequence (Q5T2W1 238-333, limits assumed, looked up): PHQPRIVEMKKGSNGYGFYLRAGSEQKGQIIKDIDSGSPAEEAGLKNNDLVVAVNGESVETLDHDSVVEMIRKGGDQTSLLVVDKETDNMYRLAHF

T6: SYNJ2BP, P57105
T6 sequence (P57105 8-110, limits assumed, looked up): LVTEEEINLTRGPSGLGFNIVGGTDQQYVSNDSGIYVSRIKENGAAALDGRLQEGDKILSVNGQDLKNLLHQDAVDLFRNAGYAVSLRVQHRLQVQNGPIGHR

T7: LNX2_2, Q8N448
T7 sequence (Q8N448 334-432, limits assumed, looked up): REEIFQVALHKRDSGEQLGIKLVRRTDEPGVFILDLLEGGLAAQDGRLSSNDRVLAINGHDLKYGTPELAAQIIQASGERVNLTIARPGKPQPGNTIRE

T8: APBA1_1, Q02410
T8 sequence (Q02410 651-752, limits assumed, looked up): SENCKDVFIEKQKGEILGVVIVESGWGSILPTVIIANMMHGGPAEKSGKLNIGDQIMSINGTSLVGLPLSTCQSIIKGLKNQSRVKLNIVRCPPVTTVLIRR

T9: NHERF3_1, Q5T2W1
T9 sequence (Q5T2W1 4-100, limits assumed, looked up): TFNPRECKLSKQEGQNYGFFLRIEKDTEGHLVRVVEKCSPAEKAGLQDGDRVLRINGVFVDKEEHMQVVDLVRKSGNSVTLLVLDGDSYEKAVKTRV

T10: GRIP1_3, Q9Y3R0
T10 sequence (Q9Y3R0 247-346, limits assumed, looked up): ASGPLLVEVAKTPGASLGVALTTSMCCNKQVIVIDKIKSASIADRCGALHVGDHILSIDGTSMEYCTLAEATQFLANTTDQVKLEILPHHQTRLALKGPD

T11: DLG3_2, Q92796
T11 sequence (Q92796 221-321, limits assumed, looked up): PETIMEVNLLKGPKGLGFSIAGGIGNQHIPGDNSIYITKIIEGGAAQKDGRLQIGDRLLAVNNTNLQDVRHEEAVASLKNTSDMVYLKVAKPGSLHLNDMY

T12: RHPN1, Q8TCX5
T12 sequence (Q8TCX5 508-602, limits assumed, looked up): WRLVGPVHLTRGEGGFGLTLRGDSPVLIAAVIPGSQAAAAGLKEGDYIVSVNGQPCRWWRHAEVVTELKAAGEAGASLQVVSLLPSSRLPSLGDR


target: T1, MPP2, Q14168; test: holdup assay; parameters: key: below the threshold = too weak to quantify, mostly under pKd 3.1 to 4; settings: plain residues with an end cap or a label only (N-terminal biotin on a linker: ado-ado)

| Binder | pKd |
| --- | --- |
| GQNMTVSVVI [PRLHR, P49683] | below the threshold |

target: GRIP2_5, Q9C0E4; test: holdup assay; parameters: key: below the threshold = too weak to quantify, mostly under pKd 3.1 to 4; settings: plain residues with an end cap or a label only (N-terminal biotin on a linker: ado-ado)
Sequence (Q9C0E4 544-642): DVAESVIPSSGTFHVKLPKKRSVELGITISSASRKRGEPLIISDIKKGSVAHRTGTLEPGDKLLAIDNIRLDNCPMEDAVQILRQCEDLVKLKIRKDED

| Binder | pKd |
| --- | --- |
| GQNMTVSVVI [PRLHR, P49683] | below the threshold |

target: T2, GRIP1_5, Q9Y3R0; test: holdup assay; parameters: key: below the threshold = too weak to quantify, mostly under pKd 3.1 to 4; settings: plain residues with an end cap or a label only (N-terminal biotin on a linker: ado-ado)

| Binder | pKd |
| --- | --- |
| GQNMTVSVVI [PRLHR, P49683] | below the threshold |

target: PDLIM1, O00151; test: holdup assay; parameters: key: below the threshold = too weak to quantify, mostly under pKd 3.1 to 4; settings: plain residues with an end cap or a label only (N-terminal biotin on a linker: ado-ado)
Sequence (O00151 1-87): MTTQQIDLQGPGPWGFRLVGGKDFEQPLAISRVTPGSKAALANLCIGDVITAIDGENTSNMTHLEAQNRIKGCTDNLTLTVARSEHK

| Binder | pKd |
| --- | --- |
| GQNMTVSVVI [PRLHR, P49683] | below the threshold |

target: HTRA1, Q92743; test: holdup assay; parameters: key: below the threshold = too weak to quantify, mostly under pKd 3.1 to 4; settings: plain residues with an end cap or a label only (N-terminal biotin on a linker: ado-ado)
Sequence (Q92743 360-477): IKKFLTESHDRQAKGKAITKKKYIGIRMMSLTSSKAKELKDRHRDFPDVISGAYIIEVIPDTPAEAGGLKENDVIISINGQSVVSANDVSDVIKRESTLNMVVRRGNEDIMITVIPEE

| Binder | pKd |
| --- | --- |
| GQNMTVSVVI [PRLHR, P49683] | 4.82 |

target: T3, APBA1_2, Q02410; test: holdup assay; parameters: key: below the threshold = too weak to quantify, mostly under pKd 3.1 to 4; settings: plain residues with an end cap or a label only (N-terminal biotin on a linker: ado-ado)

| Binder | pKd |
| --- | --- |
| GQNMTVSVVI [PRLHR, P49683] | 3.87 |

target: GRID2IP_2, A4D2P6; test: holdup assay; parameters: key: below the threshold = too weak to quantify, mostly under pKd 3.1 to 4; settings: plain residues with an end cap or a label only (N-terminal biotin on a linker: ado-ado)
Sequence (A4D2P6 272-370): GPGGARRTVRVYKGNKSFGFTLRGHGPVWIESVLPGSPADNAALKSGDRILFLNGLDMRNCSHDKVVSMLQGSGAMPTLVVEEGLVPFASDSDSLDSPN

| Binder | pKd |
| --- | --- |
| GQNMTVSVVI [PRLHR, P49683] | below the threshold |

target: T4, APBA2_1, Q99767; test: holdup assay; parameters: key: below the threshold = too weak to quantify, mostly under pKd 3.1 to 4; settings: plain residues with an end cap or a label only (N-terminal biotin on a linker: ado-ado)

| Binder | pKd |
| --- | --- |
| GQNMTVSVVI [PRLHR, P49683] | below the threshold |

target: T5, NHERF3_3, Q5T2W1; test: holdup assay; parameters: key: below the threshold = too weak to quantify, mostly under pKd 3.1 to 4; settings: plain residues with an end cap or a label only (N-terminal biotin on a linker: ado-ado)

| Binder | pKd |
| --- | --- |
| GQNMTVSVVI [PRLHR, P49683] | 4.02 |

target: PICK1, Q9NRD5; test: holdup assay; parameters: key: below the threshold = too weak to quantify, mostly under pKd 3.1 to 4; settings: plain residues with an end cap or a label only (N-terminal biotin on a linker: ado-ado)
Sequence (Q9NRD5 17-115): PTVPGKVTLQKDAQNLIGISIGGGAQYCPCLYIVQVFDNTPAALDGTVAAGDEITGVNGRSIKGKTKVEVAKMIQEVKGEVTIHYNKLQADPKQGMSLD

| Binder | pKd |
| --- | --- |
| GQNMTVSVVI [PRLHR, P49683] | below the threshold |

target: DLG2_3, Q15700; test: holdup assay; parameters: key: below the threshold = too weak to quantify, mostly under pKd 3.1 to 4; settings: plain residues with an end cap or a label only (N-terminal biotin on a linker: ado-ado)

| Binder | pKd |
| --- | --- |
| GQNMTVSVVI [PRLHR, P49683] | 3.74 |

target: FRMPD3, Q5JV73; test: holdup assay; parameters: key: below the threshold = too weak to quantify, mostly under pKd 3.1 to 4; settings: plain residues with an end cap or a label only (N-terminal biotin on a linker: ado-ado)
Sequence (Q5JV73 12-100): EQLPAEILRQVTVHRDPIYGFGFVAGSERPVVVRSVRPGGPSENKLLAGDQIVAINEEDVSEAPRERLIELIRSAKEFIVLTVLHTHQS

| Binder | pKd |
| --- | --- |
| GQNMTVSVVI [PRLHR, P49683] | below the threshold |

target: T6, SYNJ2BP, P57105; test: holdup assay; parameters: key: below the threshold = too weak to quantify, mostly under pKd 3.1 to 4; settings: plain residues with an end cap or a label only (N-terminal biotin on a linker: ado-ado)

| Binder | pKd |
| --- | --- |
| GQNMTVSVVI [PRLHR, P49683] | 3.47 |

target: DLG4_1, P78352; test: holdup assay; parameters: key: below the threshold = too weak to quantify, mostly under pKd 3.1 to 4; settings: plain residues with an end cap or a label only (N-terminal biotin on a linker: ado-ado)
Sequence (P78352 62-152): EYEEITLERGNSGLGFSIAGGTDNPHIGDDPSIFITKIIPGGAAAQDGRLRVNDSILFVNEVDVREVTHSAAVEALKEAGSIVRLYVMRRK

| Binder | pKd |
| --- | --- |
| GQNMTVSVVI [PRLHR, P49683] | below the threshold |

target: NOS1, P29475; test: holdup assay; parameters: key: below the threshold = too weak to quantify, mostly under pKd 3.1 to 4; settings: plain residues with an end cap or a label only (N-terminal biotin on a linker: ado-ado)
Sequence (P29475 9-101): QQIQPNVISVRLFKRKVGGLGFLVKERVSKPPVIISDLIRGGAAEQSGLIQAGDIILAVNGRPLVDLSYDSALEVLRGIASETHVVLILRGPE

| Binder | pKd |
| --- | --- |
| GQNMTVSVVI [PRLHR, P49683] | 3.82 |

target: Inadl_8, Q8NI35; test: holdup assay; parameters: key: below the threshold = too weak to quantify, mostly under pKd 3.1 to 4; settings: plain residues with an end cap or a label only (N-terminal biotin on a linker: ado-ado)
Sequence (Q8NI35 1425-1530): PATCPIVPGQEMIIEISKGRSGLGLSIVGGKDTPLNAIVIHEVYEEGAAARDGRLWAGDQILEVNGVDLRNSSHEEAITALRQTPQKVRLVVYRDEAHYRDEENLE

| Binder | pKd |
| --- | --- |
| GQNMTVSVVI [PRLHR, P49683] | 3.8 |

target: IL16_3, Q14005; test: holdup assay; parameters: key: below the threshold = too weak to quantify, mostly under pKd 3.1 to 4; settings: plain residues with an end cap or a label only (N-terminal biotin on a linker: ado-ado)
Sequence (Q14005 1107-1207): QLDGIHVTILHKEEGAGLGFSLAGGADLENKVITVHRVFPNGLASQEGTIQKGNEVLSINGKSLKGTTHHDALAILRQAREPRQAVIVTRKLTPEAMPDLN

| Binder | pKd |
| --- | --- |
| GQNMTVSVVI [PRLHR, P49683] | below the threshold |

target: GRIP2_4, Q9C0E4; test: holdup assay; parameters: key: below the threshold = too weak to quantify, mostly under pKd 3.1 to 4; settings: plain residues with an end cap or a label only (N-terminal biotin on a linker: ado-ado)
Sequence (Q9C0E4 446-548): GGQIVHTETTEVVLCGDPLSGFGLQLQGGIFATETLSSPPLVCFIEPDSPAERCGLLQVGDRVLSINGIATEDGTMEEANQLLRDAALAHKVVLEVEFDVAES

| Binder | pKd |
| --- | --- |
| GQNMTVSVVI [PRLHR, P49683] | below the threshold |

target: T7, LNX2_2, Q8N448; test: holdup assay; parameters: key: below the threshold = too weak to quantify, mostly under pKd 3.1 to 4; settings: plain residues with an end cap or a label only (N-terminal biotin on a linker: ado-ado)

| Binder | pKd |
| --- | --- |
| GQNMTVSVVI [PRLHR, P49683] | 5.11 |

target: T8, APBA1_1, Q02410; test: holdup assay; parameters: key: below the threshold = too weak to quantify, mostly under pKd 3.1 to 4; settings: plain residues with an end cap or a label only (N-terminal biotin on a linker: ado-ado)

| Binder | pKd |
| --- | --- |
| GQNMTVSVVI [PRLHR, P49683] | below the threshold |

target: MAGI1_1, Q96QZ7; test: holdup assay; parameters: key: below the threshold = too weak to quantify, mostly under pKd 3.1 to 4; settings: plain residues with an end cap or a label only (N-terminal biotin on a linker: ado-ado)
Sequence (Q96QZ7 1-106): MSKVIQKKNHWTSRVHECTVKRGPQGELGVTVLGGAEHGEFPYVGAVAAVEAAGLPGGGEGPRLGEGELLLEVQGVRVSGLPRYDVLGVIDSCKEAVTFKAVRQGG

| Binder | pKd |
| --- | --- |
| GQNMTVSVVI [PRLHR, P49683] | 4.22 |

target: T9, NHERF3_1, Q5T2W1; test: holdup assay; parameters: key: below the threshold = too weak to quantify, mostly under pKd 3.1 to 4; settings: plain residues with an end cap or a label only (N-terminal biotin on a linker: ado-ado)

| Binder | pKd |
| --- | --- |
| GQNMTVSVVI [PRLHR, P49683] | below the threshold |

target: T10, GRIP1_3, Q9Y3R0; test: holdup assay; parameters: key: below the threshold = too weak to quantify, mostly under pKd 3.1 to 4; settings: plain residues with an end cap or a label only (N-terminal biotin on a linker: ado-ado)

| Binder | pKd |
| --- | --- |
| GQNMTVSVVI [PRLHR, P49683] | below the threshold |

target: T11, DLG3_2, Q92796; test: holdup assay; parameters: key: below the threshold = too weak to quantify, mostly under pKd 3.1 to 4; settings: plain residues with an end cap or a label only (N-terminal biotin on a linker: ado-ado)

| Binder | pKd |
| --- | --- |
| GQNMTVSVVI [PRLHR, P49683] | 4.31 |

target: DLG4_2, P78352; test: holdup assay; parameters: key: below the threshold = too weak to quantify, mostly under pKd 3.1 to 4; settings: plain residues with an end cap or a label only (N-terminal biotin on a linker: ado-ado)
Sequence (P78352 155-259): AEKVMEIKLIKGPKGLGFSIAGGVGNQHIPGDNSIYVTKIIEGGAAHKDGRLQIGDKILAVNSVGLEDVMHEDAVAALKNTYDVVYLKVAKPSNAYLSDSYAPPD

| Binder | pKd |
| --- | --- |
| GQNMTVSVVI [PRLHR, P49683] | below the threshold |

target: T12, RHPN1, Q8TCX5; test: holdup assay; parameters: key: below the threshold = too weak to quantify, mostly under pKd 3.1 to 4; settings: plain residues with an end cap or a label only (N-terminal biotin on a linker: ado-ado)

| Binder | pKd |
| --- | --- |
| GQNMTVSVVI [PRLHR, P49683] | below the threshold |
